Experimental findings from article PMC12287301, “DSK2-mediated degradation of F-box protein LAO1 and class I TCPs modulates the nitrogen starvation response” (EMBO Reports, 2025) are described below.

B1: GST-DSK2B CT (domain or fragment, Arabidopsis thaliana, UniProt Q9SII8 237-551, looked up)
chain: MRNTDRAMSNIESMPEGFNMLRRMYENVQEPLMNATTMSGNAGNNTGSNPFAALLGNQGVTTQGSDASNNSSTPNAGTGTIPNANPLPNPWGATGGQTTAPGRTNVGGDARSPGLGGLGGLGSLGGLGGLGMLGADSPLGATPDASQLSQLLQNPAISQMMQSVFSNPQYMNQLMSLNPQLRSMLDSNPQLREMMQNPDFLRQFSSPEMMQQMMTLQQSLSQNRNTASQDAGQTGAATGNNGGLDLLMNMFGSLGAGGLSGTNQSNVPPEERYATQLQQLQEMGFYDRAENIRALLATNGNVNAAVERLLGSIGQ
notes: DSK2B (AT2G17200), Arabidopsis thaliana, C-terminus (DSK2BCT); the limits 237 to 552 a.a. are printed for the two-hybrid construct DSK2B-CT of the same name; Cloned into EcoRI-digested pGEX-4T-1; also called pGEX-4T-1-DSK2CT; source: E. coli Rosetta (DE3), purified (GST agarose)

What all share (experiment): pull-down; GST pull-down: GST or GST-DSK2BCT incubated with His-tagged TCP in 50 mM Tris-HCl pH 7.5, 150 mM NaCl, 0.5% Triton X-100, 1 mM PMSF at 4 C for 3 h, then GST beads 1 h; blots anti-GST and anti-His
What all share (details): both partners purified

One experiment concerns the target T1, His-TCP14 (Arabidopsis thaliana, UniProt Q93Z00 1-489).
T1 construct: TCP14 (AT3G47620), Arabidopsis thaliana; Cloned into BamHI/SalI-digested pET32a; also called recombinant His-TCP14; pET32a-TCP14; source: E. coli Rosetta (DE3), purified (Ni-NTA agarose)

The next experiment has as its target T2, His-TCP15 (Arabidopsis thaliana, UniProt Q9C9L2 1-325).
T2 construct: TCP15 (AT1G69690), Arabidopsis thaliana; Cloned into BamHI/SalI-digested pET32a; also called recombinant His-TCP15; pET32a-TCP15; source: E. coli Rosetta (DE3), purified (Ni-NTA agarose)

The target in the experiment “GST-DSK2B CT” is B1.

T1 sequence (Q93Z00 whole entry): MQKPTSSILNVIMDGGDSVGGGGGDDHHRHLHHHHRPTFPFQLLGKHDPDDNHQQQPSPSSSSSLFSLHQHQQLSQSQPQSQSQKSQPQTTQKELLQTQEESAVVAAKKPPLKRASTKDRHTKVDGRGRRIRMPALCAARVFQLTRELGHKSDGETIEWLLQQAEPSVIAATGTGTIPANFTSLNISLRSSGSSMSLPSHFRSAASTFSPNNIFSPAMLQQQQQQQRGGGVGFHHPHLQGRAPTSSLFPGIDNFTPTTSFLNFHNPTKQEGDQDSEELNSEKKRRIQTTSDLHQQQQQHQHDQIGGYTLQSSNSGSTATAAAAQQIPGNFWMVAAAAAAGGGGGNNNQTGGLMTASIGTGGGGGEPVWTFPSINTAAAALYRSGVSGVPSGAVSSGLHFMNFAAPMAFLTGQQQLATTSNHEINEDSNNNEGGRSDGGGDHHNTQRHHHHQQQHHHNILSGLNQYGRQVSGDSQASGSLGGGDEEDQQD

As for B1, the binding result with His-TCP14 and with His-TCP15 was “binds” in each case.

B2: His-TCP21 (natural protein)
chain: not shown
notes: TCP21 (AT5G08330), Arabidopsis thaliana; Cloned into BamHI/SalI-digested pET32a; also called recombinant His-TCP21; pET32a-TCP21; source: E. coli Rosetta (DE3), purified (Ni-NTA agarose)
For B2, in the experiment with GST-DSK2B CT, the binding result is recorded as “binds”.

B3: His-TCP7 (natural protein)
chain: not shown
notes: TCP7 (AT5G23280), Arabidopsis thaliana; Cloned into BamHI/SalI-digested pET32a; also called recombinant His-TCP7; pET32a-TCP7; source: E. coli Rosetta (DE3), purified (Ni-NTA agarose)
Regarding B3, the binding result with GST-DSK2B CT was “binds”.
